Here are results for three molecules from patent US20260232732A1 (FUNDACI INSTITUT DE RECERCA CONTRA LA LEUC MIA JOSEP …, published 2026).

Where no end group is shown, it is not given here. The star is where a group is joined. Biotin = O=C1N[C@H]2[C@H](CS[C@H]2CCCCC(=O)*)N1

For test [1], the target named is T1, naked peptide 1a MTPTDFTSPIPNMADDYGSESTSS (human).
T1 construct: also called region 1-24
T1 peptide: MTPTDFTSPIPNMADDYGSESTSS
Description: ELISA, naked peptide coated. On the procedure: (§1) The peptides were synthesized naked or with a N-terminal Biotin modification with a purity of >98%. All four scFvs were verified by ELISA that can be detected with anti-His antibodies. ELISA was performed for scFv-peptide binding validation. Briefly, naked peptides were coated (50 μg/mL) in 0.58M carbonate-bicarbonate buffer pH9.5, 100 μL/well, 4° C. O/N. Then after blocking (3% BSA-PBS, 300 μL/well 37° C. 1.5 h) and washing (PBS+Tween-20 0.05% v/v (0.05% PBST), wells were incubated with each purified scFv antibody at concentration of 1 μg/mL in PBS at 37° C. 1 h. After washing (0.05% PBST), wells were incubated with secondary antibodies (goat anti-His IgG-HRP) in PBS, 37° C., 30 min. After washing, and incubation with TMB substrate, reactions were stopped with 2M HCl and reading was quantified at OD450.

For test [2], the target named is T2, naked peptide 1b MEDYVNFNFTDFYCEKNNVRQFAS (human).
T2 construct: also called region amino acids 25 to 48
T2 peptide: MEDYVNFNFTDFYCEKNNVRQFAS
Description: ELISA, naked peptide coated. On the procedure:
as §1
On the technique in general: ELISA stands for enzyme-linked immunosorbent assay.

Test [3] has as its target T3, biotin-peptide TSSMEDYVNF (human).
T3 peptide: Biotin-TSSMEDYVNF
Description: ELISA biotin-peptide; scFv 1.25 ug/mL; repI. On the procedure:
as §1
(§2) ELISA with biotin-conjugated peptides (5 μg/mL) was performed very similar to described above with minor modifications.
(§3) A full curve ELISA was performed for each positive scFv/biotin-peptide pair in order to confirm previous results. Tables 15-17 show ELISA results of the dose-dependent full curve for each positive peptide with scFv “CCR9_HUM”, “Comp-2” and “Comp-3”, respectively.

The target of test [4] is T4, biotin-peptide SSMEDYVNFN (human).
T4 peptide: Biotin-SSMEDYVNFN
Description: ELISA biotin-peptide; scFv 1.25 ug/mL; repI. On the procedure:
as §1, §2, §3

The target in test [5] is T5, biotin-peptide SMEDYVNFNF (human).
T5 peptide: Biotin-SMEDYVNFNF
Description: ELISA biotin-peptide; scFv 1.25 ug/mL; repI. On the procedure:
as §1, §2, §3

In test [6] the target is T6, biotin-peptide MEDYVNFNFT (human).
T6 peptide: Biotin-MEDYVNFNFT
Description: ELISA biotin-peptide; scFv 1.25 ug/mL; repI. On the procedure: as §1, §2, §3

Test [7] addresses T3, biotin-peptide TSSMEDYVNF
Description: ELISA biotin-peptide; scFv 0.625 ug/mL; repI. On the procedure: as §1, §2, §3

Test [8] concerns the target T4, biotin-peptide SSMEDYVNFN
Description: ELISA biotin-peptide; scFv 0.625 ug/mL; repI. On the procedure: as §1, §2, §3

In test [9] the target is T5, biotin-peptide SMEDYVNFNF
Description: ELISA biotin-peptide; scFv 0.625 ug/mL; repI. On the procedure:
as §1, §2, §3

For test [10], the target named is T6, biotin-peptide MEDYVNFNFT
Description: ELISA biotin-peptide; scFv 0.625 ug/mL; repI. On the procedure: as §1, §2, §3

The target in test [11] is T7, Peptide 3-BSA (SSMEDYVNFN-C conjugated to BSA) (human).
T7 peptide: SSMEDYVNFNC(BSA)
Description: ELISA; Ab 1 ug/mL; repI. On the procedure: (§4) In brief, plates with each non-conjugated peptide (50 μg/mL) or BSA-conjugated peptide (5 μg/mL) were coated in 0.58M carbonate-bicarbonate buffer pH9.5, 100 μL/well, at 4° C. […] After washing, wells were incubated with the 3, 3′,5,5′-Tetramethylbenzidine (TMB) HRP substrate and reactions were stopped with 2M HCl and OD450 was recorded.

The target in test [12] is T8, Peptide 4-BSA (SMEDYVNFNF-C conjugated to BSA) (human).
T8 peptide: SMEDYVNFNFC(BSA)
Description: ELISA; Ab 1 ug/mL; repI. On the procedure: as §4

For test [13], the target named is T9, Peptide 1, non-conjugated (MADDYGSEST-C) (human).
T9 construct: With the extra C-terminal Cys
T9 peptide: MADDYGSESTC
Description: ELISA; Ab 1 ug/mL; repI. On the procedure:
as §4

Test [14] has as its target T10, Peptide 2, non-conjugated (GSESTSSMED-C) (human).
T10 construct: With the extra C-terminal Cys
T10 peptide: GSESTSSMEDC
Description: ELISA; Ab 1 ug/mL; repI. On the procedure:
as §4

Test [15] deals with T11, Peptide 3, non-conjugated (SSMEDYVNFN-C) (human).
T11 construct: With the extra C-terminal Cys
T11 peptide: SSMEDYVNFNC
Description: ELISA; Ab 1 ug/mL; repI. On the procedure:
as §4

For test [16], the target named is T12, antigen peptide-BSA (immunisation peptide #1 MADDYGSESTSSMEDYVNFNF-C conjugated to BSA) (human, extra C-terminal Cys conjugated to BSA).
T12 construct: also called Positive control antigen peptide-BSA; MADDY peptide
T12 peptide: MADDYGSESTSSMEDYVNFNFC
Description: ELISA; Ab 1 ug/mL; repI. On the procedure:
as §4

Test [17] deals with T13, Peptide 2-BSA (GSESTSSMED-C conjugated to BSA) (human).
T13 peptide: GSESTSSMEDC(BSA)
Description: ELISA; Ab 1 ug/mL; repI. On the procedure:
as §4

Test [18] deals with T7, Peptide 3-BSA (SSMEDYVNFN-C conjugated …). Description: ELISA; Ab 0.5 ug/mL; repI. On the procedure:
as §4

Test [19] deals with T8, Peptide 4-BSA (SMEDYVNFNF-C conjugated …). Description: ELISA; Ab 0.5 ug/mL; repI. On the procedure:
as §4

The target of test [20] is T10, Peptide 2, non-conjugated (GSESTSSMED-C). Description: ELISA; Ab 0.5 ug/mL; repI. On the procedure:
as §4

Test [21] deals with T11, Peptide 3, non-conjugated (SSMEDYVNFN-C). Description: ELISA; Ab 0.5 ug/mL; repI. On the procedure: as §4
Test [22] deals with T14, Peptide 4, non-conjugated (SMEDYVNFNF-C) (human).
T14 construct: With the extra C-terminal Cys
T14 peptide: SMEDYVNFNFC
Description: ELISA; Ab 0.5 ug/mL; repI. On the procedure:
as §4

The target in test [23] is T15, BSA (negative control coating) (bovine, UniProt P02769 25-607).
T15 construct: also called Negative control BSA
Description: ELISA; Ab 0.5 ug/mL; repI. On the procedure: as §4

Test [24] deals with T12, antigen peptide-BSA (immunisation …). Description: ELISA; Ab 0.5 ug/mL; repI. On the procedure:
as §4

Test [25] addresses T13, Peptide 2-BSA (GSESTSSMED-C conjugated …). Description: ELISA; Ab 0.5 ug/mL; repI. On the procedure: as §4

T15 sequence (P02769 25-607 limits assumed): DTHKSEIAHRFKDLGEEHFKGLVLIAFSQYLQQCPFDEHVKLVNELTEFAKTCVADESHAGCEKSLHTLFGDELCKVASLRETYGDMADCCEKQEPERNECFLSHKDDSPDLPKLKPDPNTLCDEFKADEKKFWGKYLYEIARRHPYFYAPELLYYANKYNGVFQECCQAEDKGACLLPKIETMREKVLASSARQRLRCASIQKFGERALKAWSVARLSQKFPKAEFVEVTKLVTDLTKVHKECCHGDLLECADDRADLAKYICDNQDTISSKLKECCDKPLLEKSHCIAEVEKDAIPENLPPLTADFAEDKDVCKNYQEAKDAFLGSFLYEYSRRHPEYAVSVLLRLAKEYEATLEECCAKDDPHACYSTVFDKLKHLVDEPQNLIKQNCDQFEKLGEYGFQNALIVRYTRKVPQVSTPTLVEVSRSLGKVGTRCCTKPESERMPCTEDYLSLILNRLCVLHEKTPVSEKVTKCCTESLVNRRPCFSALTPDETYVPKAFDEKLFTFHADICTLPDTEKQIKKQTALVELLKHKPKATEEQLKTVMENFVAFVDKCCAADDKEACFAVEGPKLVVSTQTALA

B1: Comparative antibody 1 (Comp-1) scFv, SEQ ID NO: 10 from WO2023/037125 A1, His-tagged (scFv)
scFv: QVQLKESGPGLVQPSQTLSLTCTVSGFSVASYDMHWVRLPPGKGLEWMGIIWANGNTHYNSGLKSRLSISRDTSKSQVFLKMNSLQTEDTAIYFCTRGGFAYWGQGTLVTVSSGGGGSGGGGSGGGGSGGGGSDVVMTQTPVSLSVSLGGQVSISCRSSQSLVHNNGNTYLSWYLQKPGQSPQLLIYKVSNRFSGVSDRFSGSGSGTDFTLKISRVEPDDLGVYYCGQGTQYPTFGGGTKLELKHHHHHH
For the molecule B1, the binding result in test [1] and in test [2] was “no binding” throughout.

B2: CCR9_HUM2 scFv (humanized anti-CCR9 scFv, SEQ ID NO: 17 with C-terminal 6xHis tag) (scFv)
scFv: QVQLVQSGAEVKKPGASVKVSCTASGYSFTDYIIYWVKQAHGQSLEWMGYIDPNNYNTRYSQKFQGKVTITVDKSSTSAYMELNSLTSDDTAVYYCARDVYWGQGTTVTVSSGGGGSGGGGSGGGGSGGGGSDVVMTQTPLSLSVTPGQPASISCRSSQSLVHSNGKTYLQWYLQKPGQSPKLLIYKVSNRFSGVPDRFSGSGSGTDFTLKISRVEAEDVGVYFCAQSTHVWTFGGGTKVEIKRAHHHHHH
In the case of B2, the OD450 in test [3] stood at 1.18 OD; in test [4], 1.74 OD; in [5], 1.73 OD; in test [6] it was 1.54 OD; in test [7], 0.78 OD; in test [8] it was 1.73 OD. For the same molecule, the OD450 is 1.71 OD in test [9] and 1.53 OD in test [10].

B3: anti-CCR9 antibody clone 115 (murine, from hybridoma #115) (antibody, V domains shown)
VH: QVQLKQSGPELVKPGTSVRVSCTASGYSFTDYIIYWVKQSHGRSLEWIGYIDPNNYNTRYSQKFKGKATLTVDKSSTSAFMHLNSLTSDDSAVYYCARDVYWGQGTTLTVSS
VL: DVVMTQTPLSLTVSLGDQASISCRSSQSLVHSNGKTYLQWYLQKPGQSPKLLIYKVSNRFSGVPDRFSGSGSGTDFTLKISRVEAEDLGVYFCAQSTHVWTFGGGTKLEIKR
notes: Mouse IgG1
Turning to B3, the OD450 in [11] amounted to 2.17 OD; in test [12], 2.73 OD; in test [13], 0.02 OD; in test [14] it was 0.03 OD; in test [15], 2.06 OD; in [16], 2.58 OD. Besides, the OD450 turned out to be 0.03 OD in [17]; 2.03 OD in [18]; 2.67 OD in test [19]; 0.02 OD in test [20]; 1.94 OD in test [21]; 2.29 OD in test [22]. The OD450 in test [23] worked out at 0.02 OD; in test [24], 2.44 OD; in test [25] it was 0.02 OD.
